# According to the supplement of paper PMC12042874:
# ± gives the uncertainty stated by the source.
# Test: amyloid nucleation score (Sup35N fusion, yeast selection) (log enrichment); library NNK2; higher = more nucleation; inactive = no reads after selection
# Outline: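 Output and input plasmid inserts were sequenced by Illumina after psi-negative yeast carrying Sup35N fused to peptides of 20 random codons had been induced 24 hours with 100 μM copper sulfate and grown 7 days at 30°C on medium lacking adenine and uracil. The nucleation score is the DiMSum log enrichment of output over input reads, centred on the mode score of non-aggregating sequences. Sequences with under 100 input reads were excluded.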
row,Substance,amyloid nucleation score
1,PFDTTCLYRYYSNFYPS,1.73 ± 0.19
2,EWVNVASVYGDSKKRYGWNA,-0.239 ± 0.61
3,IYLVSNLMGYKCFLSNHLAR,0.151 ± 0.32
4,CPCNGTNSLRLAYGYTGNNS,inactive
5,QYVSMKMNLRTR,-0.403 ± 1
6,VDICGTRGKRRYCSLRLFAW,-0.594 ± 1.1
7,QRIPWV,-0.509 ± 1.1
8,VVRLSSYNASTPLSVSFRRG,-0.171 ± 0.74
9,TMYRYASFKADLSDFKAAYE,0.524 ± 0.81
10,SNGYGRLAQLVGGWRDTKGG,0.398 ± 0.29
11,YTSSCILGRTFPVLKCNIDY,-1.33 ± 0.76
12,KCPSESMRKFF,0.672 ± 0.53
13,IWVGSILTQSPVVDGYFRCR,0.145 ± 0.35
14,NARQSLADSSAVRPDARTLI,0.456 ± 0.45
15,SDGNELDWIAGLTMYRGVER,0.319 ± 0.8
16,CPFSYEPNFPLIGRGNFAIW,-0.987 ± 1
17,GVLGLAFDC,0.662 ± 0.81
18,WSIPLSLMQSIRSCYNELIN,3.67 ± 0.11
19,YADKSKTCNYFSQLP,0.016 ± 1.1
20,FWSCVLSFVYN,6.1 ± 0.067
21,LTVMSFTNNLHYLF,-0.552 ± 0.48
22,SISLCGVGVRWESVTAGNVC,0.51 ± 0.36

row,Substance,amyloid nucleation score
1,TIGRSFYELPFYGAILFWMR,1.45 ± 0.21
2,IFYNIVE,-1.31 ± 0.78
3,SCWYKRWTPCSRDYDSFYIA,2.72 ± 0.09
4,MVPCWRFQSMC,0.961 ± 0.81
5,YFWSRLRFVCRDRSGKNYCS,-0.138 ± 0.76
6,RAMANHHDDWLVPGFQ,-0.258 ± 0.45
7,NMQFSSTFRYSGYYYLVEHW,1.59 ± 0.13
8,FFQEGYNRVPS,-0.336 ± 0.62
9,FKGDVHANHFICQMLFAPFR,8.596 ± 0.057
10,RFSYGVEANVMSPINTFLQW,0.77 ± 0.23
11,LYMVSPYRAKIRSQAFRLVT,-0.388 ± 0.33
12,RWMLIAE,1.03 ± 0.31
13,TWLSCPTLNHLVTNMPWY,-0.759 ± 0.39
14,VWSSMSFTSLFVIISLSNYS,2.88 ± 0.13
15,QHYRSYTSILVCSYFYFDAQ,3.12 ± 0.12
16,YRASHCQSFQ,-1.2 ± 1.1
17,GLMGLYRRALSTLRRILFMR,-0.072 ± 0.63
18,FLVYMIVVV,-0.702 ± 1.1
19,ALSSKMMGYDRF,-0.494 ± 0.64
20,FVDVVPGKSGASET,-0.126 ± 0.49
21,IMGKI,0.163 ± 0.79
22,FYMYFPNRAYWVGLGLTPML,-0.365 ± 0.61

row,Substance,amyloid nucleation score
1,RWNGSKLRY,0.009 ± 0.76
2,PDSYGNFHHSSYNHDHNLVH,inactive
3,IRNNPCFQSGDVGY,-0.088 ± 1.1
4,RKCQIRVMKNSD,-0.858 ± 1.1
5,AFKKYQS,-0.114 ± 0.74
6,PSVRTYTV,4.67 ± 0.054
7,GLTPSISSLRCIGSRFGKFS,0.86 ± 0.46
8,GGLDLRIMR,2.41 ± 0.081
9,INVVRTNIKYTMTFCIEGTN,7.306 ± 0.032
10,QLHLTEVLFQS,0.154 ± 0.22
11,GFCKEYGEVLIIRLSDSCCD,-0.393 ± 0.56
12,FSLCSLAEVAKKVTTLRRDG,-0.277 ± 1.1
13,YSDISQTRSASAIALGECRG,-0.879 ± 0.64
14,VDNCDLGIS,-0.861 ± 1.1
15,ILTGILSLVAYASSPGAPCG,2.45 ± 0.22
16,CAGGFGLKPAFVYEFWCKSI,-1.17 ± 1
17,CAGYMRRHFSAAVTWTWAEG,1.22 ± 0.69
18,DGSDREPKVSALWLHVRRTA,2.17 ± 0.13
19,RTVEWRDNYLLGRILLFNPV,-0.187 ± 0.55
20,GIIRC,0.209 ± 0.5
21,LGEYNINLMDGWEGRCRPVR,0.728 ± 0.43
22,SNQCTWNDYSG,-0.565 ± 0.64

row,Substance,amyloid nucleation score
1,RVRLTRSSSCPNSVSFCGVA,1.29 ± 0.24
2,WESLVETSSTLFLRECYNVF,-1.86 ± 0.53
3,VMVFVCVAYEYEFSPIRGPE,inactive
4,HSFLSGIKWLSSDLGDSVGY,-1.29 ± 0.62
5,DLKRTFR,-0.487 ± 0.79
6,RWVWDGPLYMLFSCMCYIKR,6.484 ± 0.064
7,RNKIMCNPYCQGRICRILSG,-0.777 ± 0.53
8,LRRYYQCGTRLLIRFRMLEV,1 ± 0.34
9,LVGFALGSDTLISRY,-0.221 ± 1.1
10,PYVTFITLCSAFKYVYKCWY,5.448 ± 0.047
11,RSNRYGRDWNGVGTKWLFHD,-0.395 ± 0.45
12,SVVFKNSVWYSITNHNIMSL,1.57 ± 0.29
13,LIYVDFHGIQVVCLYLCVHC,inactive
14,GLTFRFGTGTSLSRRFDATV,6.507 ± 0.045
15,WYRTGMGNLLSRGDVDTVRT,0.131 ± 0.55
16,CCWVDLGLKRMYESLFDR,4.14 ± 0.051
17,PRLGWHVLLVQIAVG,2.94 ± 0.085
18,HEESDGPNERTILVCSICVI,0.487 ± 0.28
19,RVLFHSSFGRGLVCEISVHV,-1.01 ± 0.62
20,YWGNYLRSFIYVVTSWSHVF,inactive
